Experiment [1] addresses T1, p300-CH1 (cysteine-histidine rich 1 domain of human coactivator protein p300, amino acid residues 323-423) (human, UniProt Q09472 323-423, uniformly 15N-labelled; folded with 3 equivalents of Zn2+).
T1 construct: range 323-423; Expressed in E. coli from pGEX-4T-2 as a GST fusion; also called p300 CH1 domain; 15N-labeled p300-CH1
The experiment can be described thus: fluorescence polarization, p300-CH1 titrated into 15 nM fluorescein-labeled HIF peptide. (Fluorescence polarisation rises when a labelled molecule tumbles more slowly, as on binding a larger partner.)

Experiment [2] addresses T1, p300-CH1 (cysteine-histidine rich 1 …). The experiment can be described thus: fluorescence polarization, p300-CH1 titrated into 15 nM fluorescein-labeled HIF-1α C-TAD786-826.

Ends that are not written are not given here.

T1 sequence (Q09472 323-423 limits assumed): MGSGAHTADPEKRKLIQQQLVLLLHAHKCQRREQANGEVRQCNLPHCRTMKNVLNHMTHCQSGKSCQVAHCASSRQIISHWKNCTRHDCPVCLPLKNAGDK

B1: fluorescein-labeled HIF-1α C-TAD786-826 (peptide)
peptide: SMDESGLPQLTSYDCEVNAPIQGSRNLLQGEELLRALDQVN
modifications: also: fluorescein label, site shown only in structure
notes: Fluorescent probe of the polarization assay; also called Flu-HIF C-TAD
B1: the Kd – broadly, the concentration at which binding is half-saturated – in experiment [1] amounted to 31 nM. In experiment [2], the EC50 (read off the curve) (commonly the concentration that produces a half-maximal response) was approximately 40 nM and the Kd was found to be 31.9 nM.

These data come from patent US20150065436A1 (UNIVERSITY OF SOUTHERN CALIFORNIA, published 2015).
